Here are results for 125 sequences from the supplement of paper PMC9112550, “Optimization of the antimicrobial peptide Bac7 by deep mutational scanning” (BMC Biology, 2022).
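Also: peptides expressed intracellularly from a pBAD plasmid library in pooled LB shake-flask culture, induced with 0.3% L-arabinose, DNA abundance read by NGS, three biological replicates, DESeq2 with apeglm shrinkage.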

The data set concerns Escherichia coli TOP10. The data set can be described thus: shrunken log2 fold change of peptide-encoding DNA abundance (4.5 h post-induction vs induction); higher = less antimicrobial activity (less host growth inhibition). The following applies: time post-induction: 4.5 h; library: site-saturation at positions 5, 18, 19, 20.
As for RRIRKRPPRLPRPRPRPMPGPRP, the “shrunken log2 fold change” value worked out at 0.0564. Next, RRIRKRPPRLPRPRPRPCCIPRP: 0.243. In the case of RRIRVRPPRLPRPRPRPGSLPRP, the “shrunken log2 fold change” value was -0.363. For RRIRYRPPRLPRPRPRPLVPPRP, the “shrunken log2 fold change” value is -0.539.

In the case of RRIRMRPPRLPRPRPRPCLVPRP, the “shrunken log2 fold change” value turned out to be 0.0451. As to RRIRTRPPRLPRPRPRPRPDPRP, the “shrunken log2 fold change” value amounted to 1.44. RRIRGRPPRLPRPRPRPAFDPRP: the “shrunken log2 fold change” value was found to be 0.763. Under RRIRQRPPRLPRPRPRPLLAPRP stands 0.328; under RRIRGRPPRLPRPRPRPKRWPRP, 0.796.

As for RRIRGRPPRLPRPRPRPQMNPRP, the “shrunken log2 fold change” value was 0.355. Next, RRIRYRPPRLPRPRPRPWKKPRP: 0.00843. Turning to RRIRIRPPRLPRPRPRPDLTPRP, the “shrunken log2 fold change” value was -0.00701. Under RRIRRRPPRLPRPRPRPTWQPRP stands 0.459; under RRIRGRPPRLPRPRPRPYNMPRP, -0.531. Next, RRIRHRPPRLPRPRPRPMWFPRP: -0.218; RRIRHRPPRLPRPRPRPMSQPRP: -0.151; RRIRMRPPRLPRPRPRPVFKPRP: -0.111. Next, RRIRIRPPRLPRPRPRPYEHPRP: -0.0784; RRIRLRPPRLPRPRPRPRMVPRP: 0.0504; RRIRIRPPRLPRPRPRPPMAPRP: -0.256. For RRIRERPPRLPRPRPRPDSKPRP, the “shrunken log2 fold change” value is -0.312. Under RRIRYRPPRLPRPRPRPDNTPRP stands -0.325; under RRIRRRPPRLPRPRPRPKYAPRP, -0.0331. Regarding RRIRRRPPRLPRPRPRPSLHPRP, the “shrunken log2 fold change” value stood at 0.114. Regarding RRIRRRPPRLPRPRPRPRPMPRP, the “shrunken log2 fold change” value worked out at 0.76.

As for RRIRKRPPRLPRPRPRPEWKPRP, the “shrunken log2 fold change” value is 0.0315. On to RRIRFRPPRLPRPRPRPNQSPRP, for which the “shrunken log2 fold change” value is -0.32. Turning to RRIRPRPPRLPRPRPRPRIQPRP, the “shrunken log2 fold change” value is 0.389. Consider RRIRHRPPRLPRPRPRPLTPPRP, for which the “shrunken log2 fold change” value was -0.119. Under RRIRWRPPRLPRPRPRPDWRPRP stands -0.0316; under RRIRDRPPRLPRPRPRPTHKPRP, -0.0994.

Take RRIRFRPPRLPRPRPRPLYRPRP: the “shrunken log2 fold change” value is -0.702. Next, RRIRMRPPRLPRPRPRPKYKPRP: -0.0345; RRIRLRPPRLPRPRPRPACQPRP: -0.0858; RRIRIRPPRLPRPRPRPSVVPRP: 0.055. Under RRIRNRPPRLPRPRPRPSVTPRP stands 0.0789; under RRIRGRPPRLPRPRPRPAYHPRP, -0.141; under RRIRRRPPRLPRPRPRPMHAPRP, 1.49. Next, RRIRPRPPRLPRPRPRPPLMPRP: 0.199. As for RRIRCRPPRLPRPRPRPDNLPRP, the “shrunken log2 fold change” value was -0.595.

For the sequence RRIRDRPPRLPRPRPRPKCCPRP, the “shrunken log2 fold change” value was found to be 0.112. In the case of RRIRVRPPRLPRPRPRPKNPPRP, the “shrunken log2 fold change” value was -0.17.

On to RRIRERPPRLPRPRPRPMTYPRP, for which the “shrunken log2 fold change” value is -0.121.

As for RRIRIRPPRLPRPRPRPTRLPRP, the “shrunken log2 fold change” value was found to be 0.0583.

In the case of RRIRKRPPRLPRPRPRPQESPRP, the “shrunken log2 fold change” value is -0.00973. Under RRIRRRPPRLPRPRPRPETKPRP stands 0.511; under RRIRNRPPRLPRPRPRPHMCPRP, -0.0575. As to RRIRRRPPRLPRPRPRPRTMPRP, the “shrunken log2 fold change” value was found to be 0.221. Under RRIRCRPPRLPRPRPRPFLEPRP stands -0.472; under RRIRPRPPRLPRPRPRPCYIPRP, -0.795; under RRIRWRPPRLPRPRPRPEMEPRP, 0.451.

RRIRNRPPRLPRPRPRPDSRPRP: the “shrunken log2 fold change” value is -0.0141. With RRIRKRPPRLPRPRPRPRDEPRP, the “shrunken log2 fold change” value is -0.0461. As for RRIRSRPPRLPRPRPRPVRTPRP, the “shrunken log2 fold change” value was -0.0647. Under RRIRVRPPRLPRPRPRPVTHPRP stands -0.277; under RRIRNRPPRLPRPRPRPRDDPRP, 0.145; under RRIRCRPPRLPRPRPRPYLRPRP, -0.00889. Next, RRIRWRPPRLPRPRPRPWQAPRP: 0.00325. RRIRQRPPRLPRPRPRPPGAPRP: the “shrunken log2 fold change” value was 0.757. Next, RRIRYRPPRLPRPRPRPKTVPRP: -1.07; RRIRKRPPRLPRPRPRPCCGPRP: 0.281; RRIRTRPPRLPRPRPRPWIMPRP: -0.621. Next, RRIRTRPPRLPRPRPRPRITPRP: -0.474; RRIRRRPPRLPRPRPRPKSEPRP: 0.0316. Take RRIRWRPPRLPRPRPRPYGKPRP: the “shrunken log2 fold change” value was 0.027. Next, RRIRARPPRLPRPRPRPVWTPRP: 0.527. For RRIRCRPPRLPRPRPRPYVTPRP, the “shrunken log2 fold change” value is -0.893. In the case of RRIRARPPRLPRPRPRPHLLPRP, the “shrunken log2 fold change” value is -0.0598. Next, RRIRQRPPRLPRPRPRPWTLPRP: -0.158; RRIRGRPPRLPRPRPRPQKNPRP: 0.368.

As to RRIRDRPPRLPRPRPRPPRFPRP, the “shrunken log2 fold change” value came out at 0.315. Next, RRIRHRPPRLPRPRPRPQCMPRP: -0.123.

For RRIRRRPPRLPRPRPRPDPEPRP, the “shrunken log2 fold change” value was 0.307.

As to RRIRIRPPRLPRPRPRPRGCPRP, the “shrunken log2 fold change” value is 0.255.

RRIRTRPPRLPRPRPRPSKDPRP: the “shrunken log2 fold change” value is -0.61. Take RRIRQRPPRLPRPRPRPNKVPRP: the “shrunken log2 fold change” value is -0.468.

For RRIRARPPRLPRPRPRPEHTPRP, the “shrunken log2 fold change” value turned out to be 0.0124.

With RRIRGRPPRLPRPRPRPHIKPRP, the “shrunken log2 fold change” value is -0.0279. On to RRIRRRPPRLPRPRPRPLLFPRP, for which the “shrunken log2 fold change” value was determined as 0.278. Under RRIRWRPPRLPRPRPRPWNHPRP stands -0.0518; under RRIRMRPPRLPRPRPRPAFSPRP, 0.0185. Turning to RRIRLRPPRLPRPRPRPYHPPRP, the “shrunken log2 fold change” value is -0.00992. For the sequence RRIRTRPPRLPRPRPRPLYHPRP, the “shrunken log2 fold change” value was -0.48. Turning to RRIRQRPPRLPRPRPRPTWAPRP, the “shrunken log2 fold change” value came to 0.586. Under RRIRVRPPRLPRPRPRPLANPRP stands -0.0581; under RRIRERPPRLPRPRPRPRISPRP, -1.36; under RRIRCRPPRLPRPRPRPTDYPRP, 1.93. Under RRIRCRPPRLPRPRPRPCHMPRP stands -0.443; under RRIRTRPPRLPRPRPRPPIPPRP, 0.128; under RRIRMRPPRLPRPRPRPPRWPRP, -0.117. Under RRIRIRPPRLPRPRPRPWQWPRP stands -0.108; under RRIRARPPRLPRPRPRPVAQPRP, 0.661; under RRIRRRPPRLPRPRPRPLPNPRP, -0.0597. With RRIRARPPRLPRPRPRPGCNPRP, the “shrunken log2 fold change” value stood at 0.252. Next, RRIRSRPPRLPRPRPRPLTRPRP: 0.0286; RRIRMRPPRLPRPRPRPDPWPRP: 0.336. RRIRYRPPRLPRPRPRPPKGPRP: the “shrunken log2 fold change” value was -0.163. Under RRIRKRPPRLPRPRPRPFCIPRP stands 0.0646; under RRIRARPPRLPRPRPRPSCRPRP, 0.248. Under RRIRRRPPRLPRPRPRPQQCPRP stands 0.15; under RRIRGRPPRLPRPRPRPCRQPRP, 0.436. Next, RRIRTRPPRLPRPRPRPGRSPRP: 0.194; RRIRNRPPRLPRPRPRPIKVPRP: -0.607. Take RRIRMRPPRLPRPRPRPQQGPRP: the “shrunken log2 fold change” value is -0.121.

As to RRIRGRPPRLPRPRPRPSDNPRP, the “shrunken log2 fold change” value is -0.165. Next, RRIRIRPPRLPRPRPRPIMLPRP: 0.112; RRIRARPPRLPRPRPRPHLAPRP: 0.298; RRIRGRPPRLPRPRPRPPPRPRP: 1.69. Consider RRIRNRPPRLPRPRPRPFGVPRP, for which the “shrunken log2 fold change” value turned out to be 0.125.

With RRIRVRPPRLPRPRPRPMGWPRP, the “shrunken log2 fold change” value worked out at 0.202. Next, RRIRKRPPRLPRPRPRPVHFPRP: -0.0637. For the sequence RRIRPRPPRLPRPRPRPRHHPRP, the “shrunken log2 fold change” value is -0.0806. Regarding RRIRTRPPRLPRPRPRPYFKPRP, the “shrunken log2 fold change” value is -0.577. Consider RRIRQRPPRLPRPRPRPAPAPRP, for which the “shrunken log2 fold change” value was 0.707. Under RRIRSRPPRLPRPRPRPECDPRP stands 0.262; under RRIRVRPPRLPRPRPRPGGLPRP, 0.00797; under RRIRVRPPRLPRPRPRPAVKPRP, 0.318. Next, RRIRQRPPRLPRPRPRPEDQPRP: 0.0199; RRIRFRPPRLPRPRPRPCHFPRP: -0.00959; RRIRVRPPRLPRPRPRPCKPPRP: -0.692. Regarding RRIRKRPPRLPRPRPRPLDTPRP, the “shrunken log2 fold change” value stood at 0.000649.

RRIRKRPPRLPRPRPRPQQAPRP: the “shrunken log2 fold change” value was -0.0621. Next, RRIRIRPPRLPRPRPRPTHGPRP: 0.0479.

Regarding RRIRKRPPRLPRPRPRPWISPRP, the “shrunken log2 fold change” value came to 0.0313. Next, RRIRVRPPRLPRPRPRPPHWPRP: 0.489.
